The text below walks through data of patent US20040157227A1, “Reproductive cancer diagnosis and therapy” (priority 2001, published 2004).

Assay [1] has as its target growth hormone secretagogue receptor type 1a (human) (UniProt Q92847). In words: cell-based or functional assay.
For another assay, the system named is PC3 cells. Description: Cell proliferation assay (MTT dye method), PC3 cells. Format: cell-based, human. The settings on record: 5 nM ghrelin, 3 days, 10% FCS. How it is done:
FIG. 13: The effect of ghrelin on PC3 cells. Cell proliferation was determined using the MTT dye method. Absorbance readings for each were converted to percentage above control±SEM, indicated by error bars. * denotes P values <0.01, ** P<0.001 (one-way ANOVA with Tukey's post hoc comparisons). Data represents one of 3 identical experiments, each n=16.
(§1) PC3, MDAMB231 and Ishikawa cells were cultured in 96 well plates for 3 days at 37° C. in the presence of ghrelin (0-20 nM), in 10% FCS. Negative controls received no treatment. After aspiration of medium, cells were incubated in MTT (Sigma) solution (0.5 mg/ml) for 2h. MTT solution was aspirated and formazan salts solubilised in dimethyl sulfoxide (ICN, Costa Mesa, Calif.). A Biomeck Plate reader (Beckman, QLD, Australia) was used to measure absorbances (550/650nm).

A further assay deals with Ishikawa cells. In words: Cell proliferation assay (MTT dye method), Ishikawa cells. The settings on record: ghrelin 0-20 nM, 3 days, 10% FCS. Format: cell-based, human. The procedure: (§2) FIG. 14: The effect of ghrelin on MDA-MB231 and Ishikawa cells. Cell proliferation was determined using the MTT dye method. Absorbance readings for each were converted to percentages above control±SEM, indicated by error bars. * denotes P values <0.01, ** P<0.001 (one-way ANOVA with Tukey's post hoc comparisons).
as §1
A general note: Tetrazolium dyes change colour on reduction, which living cells bring about.

Another assay has as its system MDA-MB 231 cells. Description: Cell proliferation assay (MTT dye method), MDA-MB 231 cells. To be noted: ghrelin 0-20 nM, 3 days, 10% FCS. The assay is classed as cell-based, human. The procedure:
as §2, §1

Chain of UniProt Q92847 (Q92847 whole entry): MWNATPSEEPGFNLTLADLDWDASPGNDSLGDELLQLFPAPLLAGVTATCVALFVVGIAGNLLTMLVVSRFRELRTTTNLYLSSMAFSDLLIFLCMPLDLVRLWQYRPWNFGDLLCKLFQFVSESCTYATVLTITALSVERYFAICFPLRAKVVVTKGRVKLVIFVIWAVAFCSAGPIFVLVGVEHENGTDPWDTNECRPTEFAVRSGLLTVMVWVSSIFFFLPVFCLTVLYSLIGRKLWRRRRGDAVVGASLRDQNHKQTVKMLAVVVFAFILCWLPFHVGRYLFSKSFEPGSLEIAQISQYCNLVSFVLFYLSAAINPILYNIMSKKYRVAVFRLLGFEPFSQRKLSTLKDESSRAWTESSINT

For the molecule “human ghrelin (from UniProt Q9UBU3 24-117) (peptide)”, the Cell proliferation of PC3 cells (MTT dye method) (% above controls) in assay [1] stood at 33.

B1: ghrelin (peptide)
peptide: GSSFLSPEHQRVQQRKESKKPPAKLQPRALAGWLRPEDGGQAEGAEDELEVRFNAPFDVGIKLSGVQYQQHSQALGKFLQDILWEEAKEAPADK
notes: endogenous ligand for the GHS-R, a 28 amino acid peptide
For B1, the “viable cell numbers increased above controls (peak of dose-related increase)” value with PC3 cells is reported as 33%. For the same molecule, the entries for the “dose related increase in cell proliferation above untreated controls (peak)” value with Ishikawa cells and with MDA-MB 231 cells were 19% and 25%, respectively.
